Positions of bridges follow the written chain, without caps; N, C: chain ends. Non-standard residues stand in square brackets, D forms with d. Hyp = O=C(O)[C@@H]1C[C@@H](O)CN1; Dab = NCC[C@H](N)C(=O)O; Aib = CC(C)(N)C(=O)O
Columns and labels:
[1] = molecular target: human melanocortin 4 receptor (human) (UniProt P32245); experiment: cell-based or functional assay
[2] = molecular target: human melanocortin 4 receptor (human) (UniProt P32245); experiment: competition with 125-NDP-α-MSH, BHK human MC4R membranes
[3] = molecular target: human melanocortin 1 receptor (human), Q01726; experiment: cell-based or functional assay
[4] = molecular target: human melanocortin 4 receptor (human), P32245; experiment: cell-based or functional assay
[5] = molecular target: human melanocortin 4 receptor (human), P32245; experiment: competition with 125-NDP-α-MSH, BHK human MC4R membranes

Chain of human melanocortin 1 receptor (human), Q01726 (Q01726 whole entry): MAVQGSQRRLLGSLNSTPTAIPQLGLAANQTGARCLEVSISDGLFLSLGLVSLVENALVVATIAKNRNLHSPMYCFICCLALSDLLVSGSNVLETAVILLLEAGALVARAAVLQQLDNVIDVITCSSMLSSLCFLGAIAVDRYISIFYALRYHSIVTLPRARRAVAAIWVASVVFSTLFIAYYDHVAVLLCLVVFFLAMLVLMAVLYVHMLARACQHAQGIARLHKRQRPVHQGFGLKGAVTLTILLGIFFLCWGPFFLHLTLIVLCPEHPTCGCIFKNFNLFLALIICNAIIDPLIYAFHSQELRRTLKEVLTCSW
Chain of human melanocortin 4 receptor (human) (P32245 whole entry): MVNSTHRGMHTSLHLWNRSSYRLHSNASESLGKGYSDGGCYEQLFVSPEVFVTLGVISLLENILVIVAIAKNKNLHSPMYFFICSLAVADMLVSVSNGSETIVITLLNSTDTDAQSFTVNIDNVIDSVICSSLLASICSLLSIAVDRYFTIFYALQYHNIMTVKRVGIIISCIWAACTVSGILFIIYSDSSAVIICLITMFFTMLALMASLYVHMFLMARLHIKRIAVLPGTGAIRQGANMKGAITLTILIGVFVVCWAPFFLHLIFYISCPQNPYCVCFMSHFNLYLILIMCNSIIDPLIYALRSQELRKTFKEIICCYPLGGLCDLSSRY
Chain of human melanocortin 4 receptor (human), P32245 (P32245 whole entry): as above

| Binder | MC4R cAMP EC50 [1] [nM] | Ki [2] [nM] | MC1R cAMP EC50 [3] [nM] | MC4R cAMP EC50 [4] [nM] | Ki [5] [nM] |
| --- | --- | --- | --- | --- | --- |
| cyclo(CH[dF]RW[dA]CH[dF]RW[dA]) (disulfide 1-7; SMILES C[C@H]1NC(=O)[C@H](Cc2c[nH]c3ccccc23)NC(=O)[C@H](CCCNC(=N)N)NC(=O)[C@@H](Cc2ccccc2)NC(=O)[C@H](Cc2c[nH]cn2)NC(=O)[C@@H]2CSSC[C@H](NC1=O)C(=O)N[C@@H](Cc1c[nH]cn1)C(=O)N[C@H](Cc1ccccc1)C(=O)N[C@@H](CCCNC(=N)N)C(=O)N[C@@H](Cc1c[nH]c3ccccc13)C(=O)N[C@H](C)C(=O)N2) [Chem. 6] | 0.06 | 0.19 |  |  |  |
| CAHFRWCAHFRW (modifications not checked) [Chem. 56] |  |  | 35.3 | 0.44 | 1.82 |
| CAHFRWCAKKKR (modifications not checked) [Chem. 59] |  |  | 0.16 | 0.004 | 0.01 |
| CAHFRWCAHFRW (modifications not checked) [Chem. 8] |  |  | 1.76 | 0.02 | 0.08 |
| CAHFRWCAYFKW (modifications not checked) [Chem. 80] |  |  | 8.65 | 0.15 | 0.16 |
| CAHFRWCAKKKR (modifications not checked) [Chem. 85] |  |  | 0.22 | 0.01 | 0.02 |
| cyclo(C[dK]H[dF]HWC[dK]H[dF]HW) (disulfide 1-7; SMILES NCCCC[C@H]1NC(=O)[C@@H]2CSSC[C@H](NC(=O)[C@H](Cc3c[nH]c4ccccc34)NC(=O)[C@H](Cc3c[nH]cn3)NC(=O)[C@@H](Cc3ccccc3)NC(=O)[C@H](Cc3c[nH]cn3)NC1=O)C(=O)N[C@H](CCCCN)C(=O)N[C@@H](Cc1c[nH]cn1)C(=O)N[C@H](Cc1ccccc1)C(=O)N[C@@H](Cc1c[nH]cn1)C(=O)N[C@@H](Cc1c[nH]c3ccccc13)C(=O)N2) [Chem. 86] | 14.5 | 9.6 |  |  |  |
| CAHFRWCAAAAW (modifications not checked) [Chem. 87] |  |  | 1.39 | 0.04 | 0.17 |
| CAHFRWCAAAAW (modifications not checked) [Chem. 88] |  |  | 1.31 | 0.02 | 0.2 |
| CAHFRWCAAAAR (modifications not checked) [Chem. 89] |  |  | 0.59 | 0.02 | 0.07 |
| CAHFRWCAAAAR (modifications not checked) [Chem. 90] |  |  | 0.65 | 0.01 | 0.11 |
| CAHFRWCAHFRW (modifications not checked) [Chem. 10] |  |  | 4.88 |  |  |
| CAHFRWCKKKR (modifications not checked) [Chem. 101] |  |  | 0.19 | 0.04 | 0.05 |
| CAHFRWCAEEAW (modifications not checked) [Chem. 102] |  |  | 14.3 | 0.49 | 10.1 |
| CAHFRWCAAFAW (modifications not checked) [Chem. 11] |  |  | 2.17 | 0.03 | 0.25 |
| CAHFRWCAHFRW (modifications not checked) [Chem. 111] |  |  | 0.31 | 0.01 | 0.04 |
| CAHFRWCPPERW (modifications not checked) [Chem. 112] |  |  | 30.2 | 0.19 | 1.21 |
| CAHFRWCRFFNA (modifications not checked) [Chem. 12] |  |  | 3.97 | 0.07 | 0.28 |
| CAHFRWCRFFNAF (modifications not checked) [Chem. 13] |  |  | 6.36 | 0.1 | 0.26 |
| cyclo(C[dP]H[dF]RWC[dP]H[dF]RW) (disulfide 1-7; SMILES N=C(N)NCCC[C@@H]1NC(=O)[C@@H](Cc2ccccc2)NC(=O)[C@H](Cc2c[nH]cn2)NC(=O)[C@H]2CCCN2C(=O)[C@@H]2CSSC[C@H](NC(=O)[C@H](Cc3c[nH]c4ccccc34)NC1=O)C(=O)N1CCC[C@@H]1C(=O)N[C@@H](Cc1c[nH]cn1)C(=O)N[C@H](Cc1ccccc1)C(=O)N[C@@H](CCCNC(=N)N)C(=O)N[C@@H](Cc1c[nH]c3ccccc13)C(=O)N2) [Chem. 33] | 19.8 | 27.8 |  |  |  |
| cyclo(C[dV]H[dF]RWC[dV]H[dF]RW) (disulfide 1-7; SMILES CC(C)[C@H]1NC(=O)[C@@H]2CSSC[C@H](NC(=O)[C@H](Cc3c[nH]c4ccccc34)NC(=O)[C@H](CCCNC(=N)N)NC(=O)[C@@H](Cc3ccccc3)NC(=O)[C@H](Cc3c[nH]cn3)NC1=O)C(=O)N[C@H](C(C)C)C(=O)N[C@@H](Cc1c[nH]cn1)C(=O)N[C@H](Cc1ccccc1)C(=O)N[C@@H](CCCNC(=N)N)C(=O)N[C@@H](Cc1c[nH]c3ccccc13)C(=O)N2) [Chem. 34] | 0.12 | 0.88 |  |  |  |
| cyclo(C[Aib][Hyp][dF]RWC[Aib][Hyp][dF]RW) (disulfide 1-7; SMILES CC1(C)NC(=O)[C@@H]2CSSC[C@H](NC(=O)[C@H](Cc3c[nH]c4ccccc34)NC(=O)[C@H](CCCNC(=N)N)NC(=O)[C@@H](Cc3ccccc3)NC(=O)[C@@H]3C[C@@H](O)CN3C1=O)C(=O)NC(C)(C)C(=O)N1C[C@H](O)C[C@H]1C(=O)N[C@H](Cc1ccccc1)C(=O)N[C@@H](CCCNC(=N)N)C(=O)N[C@@H](Cc1c[nH]c3ccccc13)C(=O)N2) [Chem. 38] | 4.22 | 5.64 |  |  |  |
| CXHFXWCXHFXW (Aib 2, 8; D-Phe 4, 10; Cit 5, 11; disulphide Cys1-Cys7; head-to-tail amide Cys1-Trp12) [Chem. 41] | 1.34 | 5.39 |  |  |  |
| CXHFXWCXHFXW (Aib 2, 8; D-Phe 4, 10; AGP 5, 11; disulphide Cys1-Cys7; head-to-tail amide Cys1-Trp12) [Chem. 43] | 0.44 | 2.61 |  |  |  |
| CAHFRWCAEEEW (modifications not checked) [Chem. 44] |  |  | 31.9 | 1.53 | 50.9 |
| cyclo(C[Aib]H[dF][Dab]WC[Aib]H[dF][Dab]W) (disulfide 1-7; SMILES CC1(C)NC(=O)[C@@H]2CSSC[C@H](NC(=O)[C@H](Cc3c[nH]c4ccccc34)NC(=O)[C@H](CCN)NC(=O)[C@@H](Cc3ccccc3)NC(=O)[C@H](Cc3c[nH]cn3)NC1=O)C(=O)NC(C)(C)C(=O)N[C@@H](Cc1c[nH]cn1)C(=O)N[C@H](Cc1ccccc1)C(=O)N[C@@H](CCN)C(=O)N[C@@H](Cc1c[nH]c3ccccc13)C(=O)N2) [Chem. 46] | 5.65 | 7.86 |  |  |  |
